Target: T1, human LY6G6D-Fc (human, UniProt O95868 20-104)
T1 construct: also called huLY6G6D; hu Ly6G6D; not shown: linker and Fc
T1 sequence: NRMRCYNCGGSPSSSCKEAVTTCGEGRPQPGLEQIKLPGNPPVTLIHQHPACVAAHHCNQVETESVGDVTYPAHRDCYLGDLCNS
Test: BIAcore SPR; chimeric Fab; Ly6G6D-Fc captured on Protein A chip, 37 C (FIG. 34C)
Method: FIG. 34C is a set of graphs showing binding of Fab variants of rabbit 20A12, rabbit 20A12 comprising […] and C50A (IA) mutations, and the polished humanized 20A12 having a QNT amino acid substitution mutations at the glycosylation site of FIG. 34B to LY6G6D, as measured using a BIAcore assay. Ly6G6D-Fc was captured on a Protein A chip, and the Fab was flowed through at 37° C..

Kd: 0.86 nM
B1: rb20A12.IA (C35I-C50A) chimeric Fab (Fab, V domains shown)
VH: QQQLEESGGDLVKPGASLTLTCTASGFDFVNNAMIWVRQAPGKGLEWIAALSFADNTAYYATWASGRFTISKISSTTVTLRMTSLTGADTATYFCMRGDLWGPGTLVTVSS
VL: DIVMTQTPSSVSAAVGGTVTINCQASESITRYLNWYQQKPGQPPKLLIYDASKLPSGVPSRFKGSGSGTQFTLTTSDLECADAATYYCQSTSFRGRSYNNTFGGGTEVVVK
modifications: CDR-L3 NNT site is N-glycosylated.
notes: also called rabbit 20A12 comprising C35I and C50A (IA) mutations

Reference: patent US20240190966A1 (published 2024)
